Assay results as given in the nanobody polyreactivity screen of Harvey et al. (2022).

Assay: yeast display, Sf9 membrane polyspecificity reagent, FACS + sequencing; frameworks hold sequencing errors
Outline: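 A synthetic nanobody library was expressed on Saccharomyces cerevisiae BJ5465 by galactose induction for 36–48 hours. The library was stained for 1 hour at 4 °C with 10% biotinylated, detergent-solubilized Sf9 membrane reagent and enriched with streptavidin microbeads before FACS. Low and high (top ~1%) gates were set on anti-HA fluorescence for expression and streptavidin fluorescence for reagent binding, and each polyreactivity label reflects the gate of origin.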

| Sequence | polyreactivity (PSR sort gate) |
| --- | --- |
| QVQLVESGGGLVQAGGSLRLSCAASGRIFYGNAMGWYRQAPGKVRELVAAISSGTSTNYADSVKGRFTISRDNAKNPVYLQMNSLKPEDTAVYYCAAGSYSRYLYSLYFDFDYWGQGTQVTVSS | low polyreactivity |
| QVQLVESGGGLVQAGGSLRLSCAASGRIFYGNARGWYRQAPGKERELVATISSSGGRTPYADSVKGRFTISRDNAKNTVYLQMNSLKPEDTAVYYCAAQGYWTGYDYWGQGTQVTVSS | high polyreactivity |
| QVQLVESGGGLVQAGGSLRLSCAASGRIFYGNVMGWYRQAPGKERELVAAITRSGGSTYYADSVKGRFTISRDYAKNTVYLQMNSLKPEDTAVYYSNDALVSRDRSYEYWGQGTQVTVSS | high polyreactivity |
| QVQLVESGGGLVQAGGSLRLSCAASGRIFYGYAMGWYIQAPGKERELVAAITYIGGTYYADSVKGRFTISRDNAKNTVYLQMNSQKPEDTSVYYCASEPFYNFVYYTYPYWYDYWGQGTQVTVSS | low polyreactivity |
| QVQLVESGGGLVQAGGSLRLSCAASGRIFYGYAMGWYRQAPGKERELVAAISRGGTRTFYADSVKGRFTISRDNAKNTVYLQMNSLKPEDTAVYYCAADPGPHRYSYDYWGQGTQVTVSS | high polyreactivity |
| QVQLVESGGGLVQAGGSLRLSCAASGRIFYGYAMGWYRQAPGKERELVAAISSGGITYYADSVKGRFTISRDNAKNTVYLQMNSLKPEDTAVYYCAATVLGDYEYWGQGTQVTVSS | low polyreactivity |
| QVQLVESGGGLVQAGGSLRLSCAASGRIFYGYAMGWYRQAPGKERELVAASRYSGGSTYADSVKGRFTISRDNAKNTVFLQMNSLKPEVTAVYYCAAGDAPYVAWDQYQDNVFRYDYWGQGTQVTVSS | low polyreactivity |
| QVQLVESGGGLVQAGGSLRLSCAASGRIFYGYAMGWYSQAPGKEREVVATITGIGGSTYADSVKGRFTISRDHAKNTVYLQMNSLKPEDTAVYYCNAERGVYWGRYPYKYDYWGQGTQVTVSS | low polyreactivity |
| QVQLVESGGGLVQAGGSLRLSCAASGRIFYGYTMGWYRQAPGKERELVAAISSSGGSTYYADSVKGRFTISRDNAKNTVYLQMNSLIPEDTAVYYCAAYVPYSPYHVEFNYWGQGTQVTVSS | high polyreactivity |
| QVQLVESGGGLVQAGGSLRLSCAASGRIFYGYTMGWYRQAPGKERELVADISWRGGSTSYADSVKGRFTISRDNAKNTVYLQMNSLKPEDTAVYYCAKRYRPESLYPFYNPYDYWGQGTQVTVSS | low polyreactivity |
| QVQLVESGGGLVQAGGSLRLSCAASGRIFYGYVMGWYRQAPGKERELVAAITWSGSRTYYADSVKGRFTISRDNAKNTVYLQMNSLKPEDTAVYYCAARIPSDGYYYWGQGTQVTVSS | high polyreactivity |
| QVQLVESGGGLVQAGGSLRLSCAASGRIFYINAMGWSRQAPGKERELVAAITEGGVSTYYADSVKGRFTISRDNAKNTVYLQMNSLKPEDTAVYYCNTTGGPDGIVIYEYWGQGTQVTVSS | low polyreactivity |
| QVQLVESGGGLVQAGGSLRLSCAASGRIFYINAMGWYRQAPGKERELVAAITEGGVSTYYADSVKGRFTISRDNAKNTVYLQMNSLKPEDTAVYYCNTTGGPDGIVIYEYWGQGTQVTVSS | low polyreactivity |
| QVQLVESGGGLVQAGGSLRLSCAASGRIFYINAMGWYRQAPGKERELVASITGSGGRTYYADSVKGRFTISRDNAKNTVYLQMNSLKPEDTAVYYCNADLYVGYLYYLYDYWGQGTQVSVSS | low polyreactivity |
| QVQLVESGGGLVQAGGSLRLSCAASGRIFYINTMGWYRQAPGKERELVAAISRRGGSTYYADSVKGRFTISRDNAKNTVYLQMNSLKPEDTAVYYCAARDQYGPGYRSESLDSWGQGTQVTVSS | low polyreactivity |
| QVQLVESGGGLVQAGGSLRLSCAASGRIFYIYAMGWYRQAPGKERELVAAISTGGGGTYYADSVKGRFTISRDNAKNTVYLQMNSLKPEDTAVYYCAVDSKPRYREFDYWGQGTQVTVSS | high polyreactivity |
| QVQLVESGGGLVQAGGSLRLSCAASGRIFYIYAMGWYRQAPGKERELVATISVSGGRTYYADSVKGRFTISRDNAKNTVYLHMNSLKPEDTAVYYCAKEGRFNIHKWYDYWGQGTQVTVSS | low polyreactivity |
| QVQLVESGGGLVQAGGSLRLSCAASGRIFYIYTMGWYILAPGKERELVAGITRAGSTNYADSVKGRFTISRDNAKNTVYLQMNSLKPEDTAVYYSNAYIWIYGFDYCGQGTQVTVSS | high polyreactivity |
| QVQLVESGGGLVQAGGSLRLSCAASGRIFYKNVMGWYRPAPGKERELVATITRRGGRTFYADSVKGRFTISRDNAKNTVYLQMNSLKPEDTAVYFCNVLPQPGKESTGDDYWGQGTQVTVSS | high polyreactivity |
| QVQLVESGGGLVQAGGSLRLSCAASGRIFYKSAMGWSRQAPGKEREWVAAITTSGGSTYYADSVKGRFTISRDNAKNTVYLQMNSLKPEDTAVYYCAARSAYGTQRLYYWGQGTQVTVSS | high polyreactivity |
| QVQLVESGGGLVQAGGSLRLSCAASGRIFYKYAMGWYRQAPGKERELVAGITRSGANTYYADSVKGRFTISRDNAKNTVYLQMNSLKPEDTAVYYCAVYIPRGGRSGYWGQGTQVTVSS | high polyreactivity |
| QVQLVESGGGLVQAGGSLRLSCAASGRIFYLNAMGWYRQAPGKERELVAAMSGSTGSTYYADSVKGRFTISRDNAKNTVYLQMNSLKPEDTAVYYCNAVLSSNTKWRYPGDYWGQGTQVTVSS | low polyreactivity |

| Sequence | polyreactivity (PSR sort gate) |
| --- | --- |
| QVQLVESGGGLVQAGGSLRLSCAASGRIFYLNDMGWYRQAPGKERELVATITSTGGSTYYADSVKGRFTISRDNAKNTVYLQMNSLKPEDTAVYYCAAGGWRAYSYTARYDYWGQGTQVTVSS | low polyreactivity |
| QVQLVESGGGLVQAGGSLRLSCAASGRIFYLNVMGWYRQAPGKERELVAAITRRDVTTYADSVKGRFTISRDNAKNTVYLQMNSLKPEDTAVYYCNAVYYNRIGFDYWGQVTQVTVSS | low polyreactivity |
| QVQLVESGGGLVQAGGSLRLSCAASGRIFYLYAMGWYRQAHGKERELVATINTSGGITYYADSVKGRFTISLDNAKNTVYLQLNSLIPEDTAVYYCNADWEWQYFYFRPGGYWGQGTQETVSS | low polyreactivity |
| QVQLVESGGGLVQAGGSLRLSCAASGRIFYLYAMGWYRQAPGKERELVAAITGGGSTSYADSVKGRFTISRDNAKNTVYLQMNSLKPEDTAVYYCATDRLTYTKYGYWGQGTQVTVSS | low polyreactivity |
| QVQLVESGGGLVQAGGSLRLSCAASGRIFYNYAMGWYRQAPGKERELVAAITRRAGRTYYADSVKGRFTISRDNSKNTVYLQMNSLKPEDTAVYYCAKDEPGSSRVLYDSWGQGTQVTVSS | low polyreactivity |
| QVQLVESGGGLVQAGGSLRLSCAASGRIFYNYAMGWYRQAPGKERELVASISNSGGSTYYADSVKGRFTISRDNAKNTVYLQMNSLKPEDTAVYYCARRYYYYTTYRYDYWGQGTQVSVSS | high polyreactivity |
| QVQLVESGGGLVQAGGSLRLSCAASGRIFYPNAMGWYRQAPGKERELVAAITSGGRTYYADSVKGRFTISRDNAKNTVYLQMNSLKPEDTAVYYCNARYSFWRSGPGYQGVDYWGQGTQVTVSS | high polyreactivity |
| QVQLVESGGGLVQAGGSLRLSCAASGRIFYPYAMGWYRQAPGKEREFVATITASGGSTYYADSVKGRVTISRDNAKNTVYFQMNSLKPEDTAVYYCAADDPGYYQVEYWGQGTQVTVSS | high polyreactivity |
| QVQLVESGGGLVQAGGSLRLSCAASGRIFYPYAMGWYRQAPGKERELVAAIRGGDSTNYADSVKGRFTISRDNAKNTVYLQMNSLKPEDTAVYYCAAVLRYVVRPYSYWSGGYDYWGQGTQVTVSS | high polyreactivity |
| QVQLVESGGGLVQAGGSLRLSCAASGRIFYPYAMGWYRQAPGKERELVAAISARGGSTYYADSVKGRFTISRDNAKNTVYLQMNSLKPEDTAVYYCATYTYRGVAEMDYWGQGTQVTVSS | high polyreactivity |
| QVQLVESGGGLVQAGGSLRLSCAASGRIFYPYAMGWYRQAPGKERELVASITSGGGTYYADSVKGRFTISRDNAKNTVYLQMNSLKPEDTAVYYCAAKYYTSWIRYDYWGQGTQVTVSS | low polyreactivity |
| QVQLVESGGGLVQAGGSLRLSCAASGRIFYRNAKGWYRQATGKERALVASITSGGRTNYADSVKGRFTISRDNAKNTVYLQMNSLKPEDTAVYYCAAPPPYSVRTFRFYYWGQGTQVTVSS | high polyreactivity |
| QVQLVESGGGLVQAGGSLRLSCAASGRIFYRNAMGRYRQAPGKERELVAAISSSGGRTYYADSVKGRFTISRDNAKITVYFQMNSLKPEDTAVYYCNRAYYLDSGYDSWGQGTQVTVSS | high polyreactivity |
| QVQLVESGGGLVQAGGSLRLSCAASGRIFYRNAMGWSRQAPGKERELVASITSAGRTYYADSVKGRFTISRDNAKNTVYLQMNSLKPEDTAVYYCAVRVAVLLNLYGYWGQGTQVTVSS | low polyreactivity |
| QVQLVESGGGLVQAGGSLRLSCAASGRIFYRNAMGWYRQAPGKERELVAAISSGSGTYYADSVKGRFTISRDNAKNTVYLQMNSLKPEDTAVYYCAARARSRDYYWGQGTQVTVSS | high polyreactivity |
| QVQLVESGGGLVQAGGSLRLSCAASGRIFYRNVMGWNRQAPGKERELVAAITYRTGSTYYADSVKGRFTISRDNAKNTVYLQMNSLKPEDTAVYYCNVVPRNGQTWGYEYDYWGQGTQVTVSS | high polyreactivity |
| QVQLVESGGGLVQAGGSLRLSCAASGRIFYRYAMGWYRQAPGKEREFVAAISRSGTTTYYADSVKGRFTISRDNAKNTVYLQMNSLKPEDTAVYYCAVGYRGWDGYWGQGTQVTVSS | high polyreactivity |
| QVQLVESGGGLVQAGGSLRLSCAASGRIFYRYAMGWYRQAPGKERELVAAISGRGGSTYYADSVKGRFTISRDNAKNTVYLQMNSLKPEDTAVYYCNALPVYRSLAYEVDYWGQGTQVTVSS | high polyreactivity |
| QVQLVESGGGLVQAGGSLRLSCAASGRIFYRYAMGWYRQAPGKERELVASITGRGGRTYYADSVKGRFTISRDNAKNSVYLHMNSLKPEDTEVYYCAADWGVHRPPYDSWGQGTQVTVSS | high polyreactivity |
| QVQLVESGGGLVQAGGSLRLSCAASGRIFYRYARGWYRQAPGKEREFVAAISGTGGSTYYADSVKGRFTISRDNAKNTVYLQMNSLKPEDTAVYYCAAFSYYSSGYDYWGQGTQVTVSS | high polyreactivity |
| QVQLVESGGGLVQAGGSLRLSCAASGRIFYRYTMGWYRQAPGKERELVAAITRGGNTYYADSVKGRFTISRDNAKNTVYLQMNSLKPEDTAVYYCAKKAPSDRNNYWGQGTQVTVSS | high polyreactivity |
